In the Human Domainome abundance scans (Beltran et al. 2025):
± gives the uncertainty stated by the source.

B1: Unconventional myosin-Ie, residues 1051 to 1108; numbered along this chain, Q12965 (parent)
chain: PQVPQCKALYAYDAQDTDELSFNANDIIDIIKEDPSGWWTGRLRGKQGLFPNNYVTKI

Variants of: B1
Assay: abundance fitness (aPCA) (normalised: wild type 0, dead -1); higher = more abundant; growth selection in yeast, the domain comes from the species named
Conditions: Homo sapiens

Abundance fitness: each site, then its substitutions
W39: P -0.559 ± 0.049; M -0.35 ± 0.13; H -0.732 ± 0.22; C -0.316 ± 0.076; D -0.819 ± 0.15; F -0.114 ± 0.13; R -0.902 ± 0.12; G -0.453 ± 0.039; Y -0.074 ± 0.082; I -0.179 ± 0.061; S -0.138 ± 0.048; N -0.352 ± 0.11; A -0.374 ± 0.071; E -1 ± 0.22; K -0.677 ± 0.32; L -0.512 ± 0.08
T40: M 0.052 ± 0.066; V 0.125 ± 0.075; I -0.059 ± 0.054; G -0.647 ± 0.086; W -0.062 ± 0.051; R -0.123 ± 0.045; L -0.058 ± 0.041; N -0.382 ± 0.11; E -0.203 ± 0.092; Q -0.075 ± 0.066; H -0.284 ± 0.16; A -0.175 ± 0.068; P -1.01 ± 0.071; F -0.479 ± 0.18; S -0.082 ± 0.05
G37: Y -0.811 ± 0.26; H -0.883 ± 0.21; F -0.797 ± 0.31; L -0.617 ± 0.095; E -0.481 ± 0.049; R -0.574 ± 0.053; I -0.52 ± 0.24; A -0.573 ± 0.043; T -0.375 ± 0.09; W -0.677 ± 0.13; C -0.584 ± 0.059; K -0.728 ± 0.082; P -0.54 ± 0.095; V -0.781 ± 0.041; Q -0.448 ± 0.099; M -0.545 ± 0.12
I30: E -0.864 ± 0.069; S -0.992 ± 0.13; Y -1 ± 0.14; V 0.058 ± 0.054; T -0.745 ± 0.16; L -0.077 ± 0.055; Q -0.891 ± 0.19; F -0.736 ± 0.33; R -1.01 ± 0.067; W -0.967 ± 0.14; D -0.628 ± 0.24; K -1.04 ± 0.17; H -0.765 ± 0.21; M -0.465 ± 0.097; N -0.85 ± 0.32; G -0.719 ± 0.071; C -0.378 ± 0.04; A -0.78 ± 0.12
D29: R -0.387 ± 0.032; T -0.062 ± 0.039; S -0.185 ± 0.055; Q -0.241 ± 0.067; V -0.303 ± 0.053; W -0.312 ± 0.068; Y -0.285 ± 0.096
K32: A -0.056 ± 0.04; D -0.242 ± 0.099; V -0.119 ± 0.04; H 0.047 ± 0.077; N -0.009 ± 0.073; G -0.097 ± 0.029; C -0.14 ± 0.051; T -0.173 ± 0.074; E 0.013 ± 0.064; R -0.042 ± 0.037; W -0.205 ± 0.069; Y -0.105 ± 0.082; L -0.122 ± 0.038; M -0.1 ± 0.074; I 0.028 ± 0.052; F -0.373 ± 0.3; Q -0.139 ± 0.078
S36: M -0.284 ± 0.19; D -0.033 ± 0.039; L -0.341 ± 0.05; N -0.381 ± 0.12; T -0.085 ± 0.043; F -0.279 ± 0.064; P -0.883 ± 0.18; E -0.279 ± 0.065; K 0.147 ± 0.071; R -0.073 ± 0.033; Y -0.349 ± 0.093; Q -0.024 ± 0.063; G -0.031 ± 0.047
E33: K -0.368 ± 0.14; H -0.758 ± 0.45; I -0.185 ± 0.054; N -0.576 ± 0.049; P -0.751 ± 0.21; A -0.236 ± 0.042; L -0.343 ± 0.052; Q 0.074 ± 0.087; M -0.02 ± 0.086; V -0.26 ± 0.045; W -0.819 ± 0.21; G -0.935 ± 0.14; D -0.271 ± 0.05; C -0.231 ± 0.041; S -0.398 ± 0.045; F -0.376 ± 0.17
P35: H -0.623 ± 0.24; K -0.027 ± 0.049; L -0.29 ± 0.065; G -0.021 ± 0.041; N -0.115 ± 0.058; R -0.094 ± 0.04; F -0.329 ± 0.12; Y -0.266 ± 0.1; C -0.066 ± 0.061; Q -0.018 ± 0.049; V -0.085 ± 0.051; A -0.07 ± 0.047; D -0.023 ± 0.051; S -0.022 ± 0.039; I -0.144 ± 0.081; M -0.075 ± 0.072; W -0.231 ± 0.05
I31: W -0.479 ± 0.042; L 0.001 ± 0.042; F -0.462 ± 0.091; P -0.87 ± 0.15; M -0.051 ± 0.078; E -0.26 ± 0.055; S -0.58 ± 0.05; Q -0.48 ± 0.08; K -0.478 ± 0.044; A -0.346 ± 0.035; C -0.089 ± 0.064; Y -0.25 ± 0.091; T -0.2 ± 0.032; V -0.054 ± 0.034; N -0.891 ± 0.45; D -0.359 ± 0.073
D34: A -0.031 ± 0.051; K -0.445 ± 0.087; E 0.06 ± 0.06; H -0.264 ± 0.23; R -0.173 ± 0.053; N 0.014 ± 0.078; Q -0.431 ± 0.092; I -0.939 ± 0.32; S -0.126 ± 0.044; F -0.332 ± 0.12; Y -0.27 ± 0.069; T -0.123 ± 0.036; P -0.15 ± 0.043; G -0.118 ± 0.063; L -0.3 ± 0.053
W38: L -0.211 ± 0.3
